Measurements published in patent publication US12564623B2, “Methods and compositions for treating cancer” (The University of Chicago, priority 2017, dated 2026).
Ends that are not written are not given here.

How the values were obtained:
MDA-MB-231 cells [1] = test: ELANE inactivation by PMSF or A1AT and killing assay; format: cell-based, human; details: irreversible non-competitive ELANE inhibitors
Protocol: (FIG. 5A) Purified native ELANE or PMN media was treated with PMSF (100 nM) or alpha-1-anti-trypsin (A1AT; 42 nM) for 30 mins and loss of ELANE catalytic activity was confirmed by a chromogenic substrate assay. Killing assays were performed by treating MDA-MB-231 cells for 24 hrs treatment and assessed by Calcein AM staining. (FIG. 5B) ELANE activity in PMN media was measured by a chromogenic substrate activity assay, and PMN killing was measured by Calcein AM staining on MDA-MB-231 cells exposed to PMN media for 4h.

ELANE [2] = details: specific ELANE inhibitors; cited from earlier work
ELANE [3] = target: T1, ELANE (Homo sapiens, UniProt P08246); test: ELANE catalytic activity with increasing ECP, chromogenic substrate activity assay; format: biochemical; details: ECP as type 2 allosteric activator
T1 construct: incubated the neutrophil conditioned media with magnetic beads coupled to an anti-ELANE antibody; endogenous in cells; host or cells: human peripheral blood neutrophils from healthy donors (conditioned media)
T1 sequence (P08246 30-267): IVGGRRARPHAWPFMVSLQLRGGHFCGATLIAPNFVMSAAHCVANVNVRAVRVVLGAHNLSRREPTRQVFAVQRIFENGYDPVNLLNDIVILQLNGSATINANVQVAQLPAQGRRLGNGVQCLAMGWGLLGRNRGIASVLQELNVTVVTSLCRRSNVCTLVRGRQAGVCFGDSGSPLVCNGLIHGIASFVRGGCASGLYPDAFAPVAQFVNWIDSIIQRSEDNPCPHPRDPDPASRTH
Protocol: (§1) FIG. 7A-D. ECP is a type II allosteric activator of ELANE catalytic activity. (a) 10 nM ELANE was incubated with increasing ECP concentrations at various substrate concentrations. Catalytic activity was measured by a chromogenic substrate activity assay. (b) Km (app) and Vmax (app) values were obtained by fitting curves to Michaelis-Menten equations (lines). (c) Km (app) versus ECP concentration. (d) Vmax (app) versus ECP concentration. ELANE was immunoprecipitated from human PMN media and samples were probed with anti-ELANE and anti-ECP antibodies. Orig=PMN media, Sup=flow-though, Wash=bead wash, Elute=bound to anti-ELANE antibody.
as §1, with “ECP” for “FIG. 7A-D. ECP”, “(FIG. 7A)” for “(a)”, “(FIG. 7B)” for “(b)”, “(FIG. 7C)” for “(c)”, “(FIG. 7D)” for “(d)”

MDA-MB-231 cells [4] = test: Cancer cell killing, Calcein AM staining; format: cell-based, human; details: increasing doses, 5h
Protocol: Approach to identify the factor(s) mediating selective killing. A quantitative cancer cell killing assay was developed to track the bioactive factor(s). MDA-MB-231 cells were treated with various doses of PMN media and cell viability was assessed by Calcein AM live cells fluorescence staining. […] (FIG. 3B) PMN media was passed through a 0.22 μm filter, and protein concentration and killing activity on MDA-MB-231 cancer cells was measured in both pre- and post-filter solutions. […] ELANE and ECP levels in PMN media pre- and post-filtration were quantified by mass spectrometry (spectral counts).
To determine if ELANE and/or ECP were responsible, the inventors (1) immuno-depleted ELANE or ECP from PMN media; (2) treated cancer or normal cells with purified native ELANE or ECP from commercial sources. (FIG. 6A) ELANE or ECP were depleted from PMN media by immunoprecipitation; depletion was confirmed by western blotting. PMN media pre-depletion=Orig. and post-depletion=FT. Non-specific IgG was used as a control. (FIG. 6B) MDA-MB-231 cells or human monocyte-derived macrophages (HMDMs) were treated with purified native ELANE or ECP at various doses for 24h, and killing was assessed by Calcein AM staining. (FIG. 6C) MDA-MB-231 cells and HMDMs were treated with levels of ELANE (0.25 μg/mL) or ECP (0.05 μg/mL) that were present in the PMN media, alone or in combination for 24 hrs, and killing was examined by Calcein AM staining.
High doses of ECP or ELANE can kill cancer cells. The inventors sought to determine whether adding purified human ECP (Lee Biosolutions), human ELANE (Abcam), human DEFA1 (Abcam), human ANXA6 (R&D Systems) or human CASP3 (Abcam) individually could kill cancer cells without killing non-cancer cells. Increasing doses of each protein were added to MDA-MB-231 cells for 5h or human monocyte-derived macrophages (HMDMs) for 24 h and cell viability was determined by Calcein-AM.
ELANE and ECP synergize to selectively kill cancer cells. MDA-MB-231 and human monocyte-derived macrophages (HMDMs) were treated with levels of ELANE (0.25 μg/mL) or ECP (0.05 μg/mL) that were present in the PMN media, alone or in combination for 24 hrs. killing was examined by Calcein AM staining.
Combining chemotherapeutics and neutrophil conditioned media enhances the killing of human triple negative breast cancer cells. MDA-MB-231 cells were treated with neutrophil conditioned media (Neu-CM; 4 μg/mL), doxorubicin (DOX; 0.3 μM), or paclitaxel (PTX; 3 nM) for 4h, individually or in combination, and cell viability was assessed by Calcein-AM.
Other serine proteases cleave the C-terminal domain of CD95, and the ability to cleave the C-terminal domain is associated with cancer cell killing. (FIG. 12A) Full length recombinanat CD95 protein was incubated with various serine proteases (human ELANE (80 nM), PR3 (80 nM), CSTG (80 nM), PPE (80 nM), mouse ELANE (80 nM), rat ELANE (500 nM), GZMB (80 nM), or Trypsin (250 nM)), or other types of proteases (CTSC (80 nM); or MMP7 (80 nM), MMP9 (80 nM), CTSD (80 nM) not shown) at 37° C. for 2 hours. Degradation was assessed by SDS-PAGE followed by coomassie blue staining. (FIG. 12B) MDA-MB-231 cancer cells were incubated with various proteases for 24 hrs. Cell viability was assessed by Calcein AM staining.
(FIG. 13A) MDA-MB-231 cancer cells were treated with various doses of purified native ELANE or purified native porcine pancreatic elastase (PPE) for 6 h, and killing was assessed by Calcein AM staining. (FIG. 13B). Purified native ELANE or purified native PPE was incubated with different concentrations of alpha-1-anti-trypsin (A1AT) for 15 mins. Catalytic activity was measured using a chromogenic substrate assay. Cancer cell killing capability was determined by treating MDA-MB-231 cancer cells with ELANE or PPE in the presence or absence of A1AT for 6h, followed by Calcein AM staining. (FIG. 13C) Catalytic activity was measured using a chromogenic substrate assay. […]

[5] = tested on: human monocyte-derived macrophages (HMDMs); format: cell-based
Protocol: Human peripheral blood neutrophils were isolated from healthy donors. Cells were plated in serum-free DMEM and the neutrophil conditioned media (Neu CM) was collected for 24h. […] High doses of ECP or ELANE can kill cancer cells. The inventors sought to determine whether adding purified human ECP (Lee Biosolutions), human ELANE (Abcam), human DEFA1 (Abcam), human ANXA6 (R&D Systems) or human CASP3 (Abcam) individually could kill cancer cells without killing non-cancer cells. Increasing doses of each protein were added to MDA-MB-231 cells for 5h or human monocyte-derived macrophages (HMDMs) for 24 h and cell viability was determined by Calcein-AM. […] ELANE and ECP synergize to selectively kill cancer cells. MDA-MB-231 and human monocyte-derived macrophages (HMDMs) were treated with levels of ELANE (0.25 μg/mL) or ECP (0.05 μg/mL) that were present in the PMN media, alone or in combination for 24 hrs. killing was examined by Calcein AM staining.

ELANE [6] = target: T1, ELANE; test: Anti-ELANE magnetic bead pull-down from neutrophil conditioned media, western blotting; format: binding; details: anti-ELANE antibody beads
From the text: Identification of ECP, ELANE, ANXA6, DEFA1, and CASP3 as candidate cancer cell killing proteins in the neutrophil conditioned media. Neutrophil conditioned media was obtained from 2 different donors (Donor 1 and Donor 2). […] To determine the identity of the proteins depleted by the 0.2 μm sterile filter, the inventors performed quantitative proteomics analysis on the conditioned media from each donor pre- and post-filter. Proteomics analysis identified 2000 proteins, 4 of which (ECP, ELANE, ANXA6, and DEFA1) were depleted in samples from both donors (G-test, p<0.05). The inventors explored the possibility that these proteins might interact with or complement one another. This hypothesis was tested using two approaches. First, the inventors incubated the neutrophil conditioned media with magnetic beads coupled to an anti-ELANE antibody and analyzed the supernatant (sup), wash, and eluent (elute) by western blotting.

[7] = tested on: E0771, B16F10, or LLC1 cancer cells; test: Tumor growth after intratumoral delivery, syngeneic models; format: in vivo, C57BL/6 mice; details: 11.6 μg intratumorally once/day for 5 days
Protocol: ELANE activity is required for its anti-tumor function in vivo. (FIG. 14A) Catalytic activity of ELANE or ELANE that had been inactivated by treatment with 100 nM PMSF (PMSF-ELANE) was determined by a chromogenic substrate. (FIG. 14B) E0771, B16F10, or LLC1 cancer cells were injected into C57BL/6 mice. Once tumors reached ˜100 mm^3, human serum albumin (HSA, 11.6 μg), ELANE (11.6 μg), or PMSF-ELANE (11.6 μg) were delivered intratumorally once/day for 5 days. Tumor volume was assessed by calipers.

Molecule: O=S(=O)(F)Cc1ccccc1 [PMSF]
- effect on cancer cell apoptosis of treating ELANE or neutrophil conditioned media with inhibitor (MDA-MB-231 cells [1]): protects cancer cells from apoptosis

Molecule: CC(C)(C)C(=O)Oc1ccc(S(=O)(=O)Nc2ccccc2C(=O)NCC(=O)O)cc1 [sivelestat]
- growth of transplanted cancer cells (ELANE [2]): suppress growth of cancer cells transplanted into severe combined immunodeficiency mice

Molecule: alpha-1-antitrypsin
- effect on cancer cell apoptosis of treating ELANE or neutrophil conditioned media with inhibitor (MDA-MB-231 cells [1]): protects cancer cells from apoptosis

Molecule: elafin (AQEPVKGPVSTKPGSCPIILIRCAMLNPPNRCLKDTDCPGIKKCCEGSCGMACFVPQ; ends and bridges not checked; cysteine pairing not given here; UniProt P19957 61-117, looked up)
- growth of transplanted cancer cells (ELANE [2]): suppress growth of cancer cells transplanted into severe combined immunodeficiency mice

B1: eosinophil cationic protein (protein, listed as Homo sapiens)
chain: MVPKLFTSQICLLLLLGLMGVEGSLHARPPQFTRAQWFAIQHISLNPPRCTIAMRAINNYRWRCKNQNTFLRTTFANVVNVCGNQSIRCPHNRTLNNCHRSRFRVPLLHCDLINPGAQNISNCTYADRPGRRFYVVACDNRDPRDSPRYPVVPVHLDTTI
- effect on KM of ELANE (ELANE [3]): without altering KM
- increase of kcat of ELANE for its substrate (ELANE [3]): 12 fold
- cancer cell killing activity of purified protein (MDA-MB-231 cells [4]): highest cancer cell killing activity
- toxicity to human monocyte-derived macrophages [5]: showed toxicity
- binding to ELANE (ELANE [6]): ELANE-binding proteins

B2: PMSF-ELANE: ELANE that had been inactivated by treatment with PMSF (protein, UniProt P08246 30-267, looked up)
Neutrophil elastase: T1 sequence (P08246 30-267)
modifications: PMSF-inactivated
- tumor growth [7]: no effect on tumor growth
